Measurements from the nanobody polyreactivity screen of Harvey et al. (2022).

Assay: yeast display, Sf9 membrane polyspecificity reagent, FACS + sequencing; frameworks hold sequencing errors
Summary of the method: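 Nanobodies from a synthetic yeast display library (Saccharomyces cerevisiae BJ5465), induced 36–48 hours with galactose, were stained 1 hour at 4 °C with 10% biotinylated, detergent-solubilized Sf9 membrane reagent, enriched on streptavidin microbeads, then FACS-sorted. Anti-HA (expression) and streptavidin (reagent binding) fluorescence set low and high (top ~1%) gates. Polyreactivity labels come from the gate of origin. Genes were colony-PCR amplified, MiSeq 2 × 250 sequenced and filtered by CDR length.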

Sequence | polyreactivity (PSR sort gate)
QVQLVESGGGLVQAGGSLRLSCAASGSIFGTYAMGWYRQAPGKERELVAAISRGGRTYYADSVKGRFTISRDNAKNTVYLQMNSLKPEDTAVYYCAARTVGLRGYYYWGQGTQVTVSS | high polyreactivity
QVQLVESGGGLVQAGGSLRLSCAASGSIFGTYAMGWYRQAPGKERELVATISYGDGSTYYADSVKGRFTISRDNAKNTVYLQMNSLKPEDTAVYYCNTGVYSSGGPLDYWGQGTQVTVSS | low polyreactivity
QVQLVESGGGLVQAGGSLRLSCAASGSIFGVNAMGWYRQAPGKERELVAAISSGGSTNYADSVKGRFTISRDNAKNTVYLQMNSLKPEDTAVSYCNTLWGHQYIGPYRTRECYYWGQGTQVTVSS | low polyreactivity
QVQLVESGGGLVQAGGSLRLSCAASGSIFGVNAMGWYRQAPGKERELVASITGGDSTNYADSVKGRFTISRDNAKNTVYLQMNSLKPEDSAVYYCAKDHYYRYEEGDYWGQGTQVTVSS | low polyreactivity
QVQLVESGGGLVQAGGSLRLSCAASGSIFGVNAMGWYRQAPGKERELVASITGGDSTNYADSVKGRFTISRDNAKNTVYLQMNSLKPEDTAVYYCAKDHYYRYEEGDYWGQGTQVTVSS | low polyreactivity
QVQLVESGGGLVQAGGSLRLSCAASGSIFGVNAMGWYRQAPGKERELVATISASGGSTYYADSVKGRFTISRDNAKNTVYLQMNSLKPEDTAVYYCATVVSPSPEMDYWGQGTQVTVSS | low polyreactivity
QVQLVESGGGLVQAGGSLRLSCAASGSIFGVYAMGWYIPAPGTERELVAAISRGGSTNDADSVKGRFTISRDNEKNTVYLQMNSLKPEDTAVYYCNAVPVLGGYGYQWGYDYWGQGTKVTVSS | low polyreactivity
QVQLVESGGGLVQAGGSLRLSCAASGSIFGWNAMGWYRQAPGKERELVAAITRRGDSTYYADSVKGRFTISRDNAKNTVYLQMNSLKPEDTAVYYCAKRGTGVYRVDYGYWGQGTQVTVSS | high polyreactivity
QVQLVESGGGLVQAGGSLRLSCAASGSIFGWYAMGGYRQAPGKESELVASISVTAGSTYYADSVKWRFTMSRDYAKNTVYLQMNSLKPEDTAVYYCAADDYTADAVQRFYYWGQGTQVTVSS | low polyreactivity
QVQLVESGGGLVQAGGSLRLSCAASGSIFGWYAMGWYRQAPGKEREFVATISRRGGRTYYADSVKGRFTISRDNAKNTVYLQMNSLKPEDTAVYYCAANSVYKEDYWGQGTQVTVSS | high polyreactivity
QVQLVESGGGLVQAGGSLRLSCAASGSIFGWYAMGWYRQAPGKERELVAAIDSATSTYYADSVKGRFTISRDNAKNTVYLQKNSLKPEDTAVYYCAVYSWWIDAEYDYWGQGSQVTVSS | low polyreactivity
QVQLVESGGGLVQAGGSLRLSCAASGSIFGWYAMGWYRQAPGKERELVAGISWSGANTYYADSVKGRFTISRDNAKNTVYLQMNSLKPEDTAVYYCAAGPGLYYSRRYGYWGQGTQVTVSS | high polyreactivity
QVQLVESGGGLVQAGGSLRLSCAASGSIFGWYAMGWYRQAPGKERELVATISSGGGNTYYADAVKGRFTISRDNAKNTVYLQMNSLKPEDTAVYYCNASPGPDSRLAEFDYWGQGTQVTVSS | low polyreactivity
QVQLVESGGGLVQAGGSLRLSCAASGSIFGWYVMGWYRQAPGKERELVAAISSVGSTYYADSVKGRFTISRDNAKNTVYLQMNSLKPEDTAVYYCAKLRYPYLFWDDSEYWGQCTQVTVSS | low polyreactivity
QVQLVESGGGLVQAGGSLRLSCAASGSIFGYNAKGWYRQAPGKERELVAAINYRGGSTYYADSVKGRFTISRDNAKNTVYLQMNSLKPEDTAVYYCAARYWKDGSTYDYWGQGTQVTVSS | high polyreactivity
QVQLVESGGGLVQAGGSLRLSCAASGSIFGYNAMGWYRQAPGKEREFVAAISWSGGRTYYADSVKGRFTISRDNAKYTVYLQMNSLKPEDTAVYYCAAPSRPAPRFDYWGQGTQVTVSS | low polyreactivity
QVQLVESGGGLVQAGGSLRLSCAASGSIFGYNAMGWYRQAPGKEREFVAAITSGGSTYYADSVKGRFTISRDNAKNTVYLQMNSLKPEDTAVYYCRRRNVYSTRRYDYWGQGTQVTVSS | high polyreactivity
QVQLVESGGGLVQAGGSLRLSCAASGSIFGYNAMGWYRQAPGKEREFVASIRYRGGSTYYADSVKGRFTISRDNAKNTVYLQMNSLKPEDTAVYYSAAYWWGVSKRQYGYWGQGTQVTVSS | high polyreactivity
QVQLVESGGGLVQAGGSLRLSCAASGSIFGYNAMGWYRQAPGKERELVATISSGGSTNYADSVKGRFTISRDNAKNTVYLQMNSLKPEDTAVYYCAKEYGSIIPYDYWGQGTQVTVSS | low polyreactivity
QVQLVESGGGLVQAGGSLRLSCAASGSIFGYNDMGCYRQAPGKEREMVAAITTSGDSTYYADSVKGRFTISRDNAKNTVYLQMNSLKPEDTAVYYCNADGEVVDWYHPYYVEYDYWGQGTQVTVSS | low polyreactivity
QVQLVESGGGLVQAGGSLRLSCAASGSIFGYNTMGWYRQAPGKERELVAAISYSGGRTYYADSVKGRFTISRDNAKNTVYVQMNSLKPEDTAVYYCAADFYFRRGTDYDYWGQGTQVTVSS | high polyreactivity
QVQLVESGGGLVQAGGSLRLSCAASGSIFGYYALGWYRQAPGKERELVAAISRSGGSTYYADSVKGRFTISRDNAKNTVYLQMNSLKPEDTAVYYCAADDYPYGNYYWGQGTQVTVSS | high polyreactivity

Sequence | polyreactivity (PSR sort gate)
QVQLVESGGGLVQAGGSLRLSCAASGSIFGYYAMGGYIQAPGYERELVAAISYSGGSTYYADSVKGRFTISRDHAKNTVYLQMNSLKPEDTAVYYCAAVRRRTRYGYRYDYWGQGTQVTVSS | high polyreactivity
QVQLVESGGGLVQAGGSLRLSCAASGSIFGYYAMGWYRLAPGKERELVAAINWRGTSTYYADSVKGRFTISRDNAKNTVYLQMISLKPEDTAVYYCAARRSVGGYGYWGQGTQVTVSS | high polyreactivity
QVQLVESGGGLVQAGGSLRLSCAASGSIFGYYAMGWYRQAPGKERELVAAIRWSDGSTYYADSVKGRFTISRDNAKNTVYLQMNSLKPEDTAVYYCAAETGWLYDYWGQGTQVTVSS | high polyreactivity
QVQLVESGGGLVQAGGSLRLSCAASGSIFGYYAMGWYRQAPGKERELVAAISGSGGSTYYADSVKGRFTISRDYAKNTVYLQMNSLKPEDTAVYYCAARWQWLNGYYYWGQGTHVTVSS | high polyreactivity
QVQLVESGGGLVQAGGSLRLSCAASGSIFGYYAMGWYRQAPGKERELVAAISRGGRTNYADSVKGRFTISRDNAKNTVYLQMNSLKPEDTAVYYCAAESYRAYKYDYWGQGTQVTVSS | low polyreactivity
QVQLVESGGGLVQAGGSLRLSCAASGSIFGYYAMGWYRQAPGKERELVAAITRSGGRTYYADSVKGRFTISRDNAKNTVYLQMNSQKPEDTAVYYCATEWLKDRYPYGYWGQGTQVTVSS | high polyreactivity
QVQLVESGGGLVQAGGSLRLSCAASGSIFGYYAMGWYRQAPGKERELVAVITSGATTNYADSVKGRFTISRDNAKNTVYLQMNSLKPEDTAVYYCAARPQVKRGRYGYWGQGTQVTVSS | low polyreactivity
QVQLVESGGGLVQAGGSLRLSCAASGSIFGYYAMGWYRQARGNERELGAAIRSTGSTNYADSVKGRFTISRDNAQNTVYLQMNSLKPEDTAVYYCAAGDITGGSGNWVVTPYDYGGQGTQVTVSS | high polyreactivity
QVQLVESGGGLVQAGGSLRLSCAASGSIFGYYTMGWYRQAPGKERELVAAITSGGSTHYADSVKGRFTISRDNAKKTGYLQMNSLKPEDTAVYYCAKVSYYPWRYDYWGQGTQVTVSS | low polyreactivity
QVQLVESGGGLVQAGGSLRLSCAASGSIFGYYVMGWYRQAPGKERELVAAISRSGGSTYYADSVKGRFTISRDHAKNTVYLQMNSLKPEDTAVYYCAARGTAERDYWGQGTQVTVSS | high polyreactivity
QVQLVESGGGLVQAGGSLRLSCAASGSIFHDNAMGWYRQAPGKERELVAAITTSGGNTYYADSVKGRFTISRDNAKNTVYLQMNSLKPEDTAVYYCAADTLGKYDYWGQGTQVTVSS | low polyreactivity
QVQLVESGGGLVQAGGSLRLSCAASGSIFHGYAMRWYRQAPGKERELVAAISRNGGGTYYADSVKGRFTISRDNAKNTVYLQMNSLKPEDTAVYYCAVVRYSSRYDYWGQGTQVTVSS | high polyreactivity
QVQLVESGGGLVQAGGSLRLSCAASGSIFHIYAMGWYRQAPGKERELVAAISSGGRTNYADSVKGRFTISRDNAKNTVYLQMNSLKPEDTAVYYCAADWIYLPTRNYRVRVDYWGQGTQVTVSS | high polyreactivity
QVQLVESGGGLVQAGGSLRLSCAASGSIFHKNAMGWYRPAPGNERELVATITSDGSTNYADSVKGRFTISRDNEKNTVYLQMNSLKPEDTAVYDCAAYSQVGGYDYWGQGTQVTVSS | low polyreactivity
QVQLVESGGGLVQAGGSLRLSCAASGSIFHPYAMGWYRQAPGKEREFVAAITFRGSTYFADSVKGRFTISRDNAKITVYLQMNSLKPEDTAVYYCAARYHIFRRGSRNYDYWGQGTQVTVSS | high polyreactivity
QVQLVESGGGLVQAGGSLRLSCAASGSIFHTYAMGWYRQAPGKERELVAAISGIGGSTYYADSVKGRFTISRDNAKNTVYLQMNSLKPEDTAVYYCAVELYWYPGYDYWGQGTQVTVSS | low polyreactivity
QVQLVESGGGLVQAGGSLRLSCAASGSIFHTYAMGWYRQAPGKERELVAAITVSGGDTYYADSVKGRFTISRDNAKNTGYLQMNSLKPEDTAVYYCAKRIFDTFDSWGQGTQVTVSS | low polyreactivity
QVQLVESGGGLVQAGGSLRLSCAASGSIFHTYTMGWYRQAPGKERELVAAITRSGGTTYYADSVKGRFTISRDNAKNTVYLQMNSLKPEDTAVYYCAATHPGAVSFRYYYWGQGTQVTVSS | high polyreactivity
QVQLVESGGGLVQAGGSLRLSCAASGSIFHYYAMGWYRQAPGKERELVADITSGGSTNYADSVKGRFTISRDNAKNTVYVQMNSLKQEDTAVYYCNASFQSWLVRVPGDYWGQGTQVTVSS | low polyreactivity
QVQLVESGGGLVQAGGSLRLSCAASGSIFHYYAMGWYRQATGKERELVAAISTSGGSTYYADSVKGRFTISRDNAKNTVYLQMNSLKPEDTAVYYCNAVYYYFPVGDDEYWGQGTQVTVSS | high polyreactivity
QVQLVESGGGLVQAGGSLRLSCAASGSIFIFNAMGWYRQAPGKEREFVARIRRDSSTNYADSVKGRFTISRDNAKNTVYLQMNSLKPEDTAVYYCAAKRFYRRVELNSWGQGTQVTVSS | low polyreactivity
